Earlier results on one substance are cited in article PMC6292179.

In this series the target is IL-18BP (Homo sapiens) (UniProt O95998).
Chain of IL-18BP (Homo sapiens) (O95998 31-194): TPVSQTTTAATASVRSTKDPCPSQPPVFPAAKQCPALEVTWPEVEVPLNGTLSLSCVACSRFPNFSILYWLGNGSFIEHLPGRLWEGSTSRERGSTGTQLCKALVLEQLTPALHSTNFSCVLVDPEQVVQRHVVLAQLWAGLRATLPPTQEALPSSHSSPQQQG

Chain of IL-18 (Q14116 37-193): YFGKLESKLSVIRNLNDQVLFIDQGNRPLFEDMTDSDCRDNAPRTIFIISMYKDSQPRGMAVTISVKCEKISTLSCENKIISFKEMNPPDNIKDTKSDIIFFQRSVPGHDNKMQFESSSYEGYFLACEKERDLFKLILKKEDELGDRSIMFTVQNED

Regarding IL-18 (from UniProt Q14116), the Kd (as a rule, the constant that tells how readily two partners part at equilibrium) is 0.4 nM.
